Experiment [1] concerns the target HLA-A*01:01. Kind of experiment: IEDB peptide-MHC binding, purified MHC/direct/fluorescence; filed as Kd, often an IC50 or EC50 that approximates it; ≥ and ≤ were set here for values at or beyond the usual limits of such assays. The settings on record: source organism: Escherichia coli O157:H7.
In experiment [2] the target is HLA-A*03:01. The experiment is described as above. The settings on record: source organism: Escherichia coli O157:H7.
The target of experiment [3] is HLA-A*11:01. The description is as above. Conditions: source organism: Escherichia coli O157:H7.
Experiment [4] has as its target HLA-A*29:02. The description is as above. The settings on record: source organism: Escherichia coli O157:H7.
Experiment [5] concerns the target HLA-A*69:01. The experiment is described as above. The settings on record: source organism: Escherichia coli O157:H7.
The target in experiment [6] is HLA-B*18:01. The experiment is described as above. The settings on record: source organism: Escherichia coli O157:H7.
For experiment [7], the target named is HLA-B*27:05. Described as above. The settings on record: source organism: Escherichia coli O157:H7.
Experiment [8] concerns the target HLA-B*40:01. The description is as above. The settings on record: source organism: Escherichia coli O157:H7.
Experiment [9] deals with HLA-B*44:02. The experiment is described as above. Conditions: source organism: Escherichia coli O157:H7.
For experiment [10], the target named is HLA-B*46:01. Described as above. The settings on record: source organism: Escherichia coli O157:H7.
Experiment [11] deals with HLA-B*48:01. The description is as above. The settings on record: source organism: Escherichia coli O157:H7.
The target in experiment [12] is HLA-B*57:01. Described as above. Conditions: source organism: Escherichia coli O157:H7.
Experiment [13] addresses HLA-B*58:01. Described as above. Conditions: source organism: Escherichia coli O157:H7.
Experiment [14] concerns the target HLA-B*35:01. Kind of experiment: IEDB peptide-MHC binding, purified MHC/competitive/radioactivity; filed as Kd, often an IC50 or EC50 that approximates it; ≥ and ≤ were set here for values at or beyond the usual limits of such assays.
The target of experiment [15] is HLA-B*57:01. Described as above.
Experiment [16] concerns the target HLA-A*24:02. Kind of experiment: IEDB peptide-MHC binding, purified MHC/competitive/fluorescence; ≥ and ≤ were set here for values at or beyond the usual limits of such assays.
The target of experiment [17] is HLA-B*07:02. The description is as above.
In experiment [18] the target is HLA-A*02:01. The description is as above.
Experiment [19] concerns the target HLA-B*08:01. Described as above.
Experiment [20] deals with HLA-A*29:02. Put plainly: IEDB peptide-MHC binding, purified MHC/competitive/fluorescence; filed as Kd, often an IC50 or EC50 that approximates it; ≥ and ≤ were set here for values at or beyond the usual limits of such assays.
Experiment [21] concerns the target HLA-A*24:02. Put plainly: IEDB peptide-MHC binding, purified MHC/competitive/radioactivity; filed as Kd, often an IC50 or EC50 that approximates it; ≥ and ≤ were set here for values at or beyond the usual limits of such assays. Conditions: source organism: Dengue virus 2 Jamaica/1409/1983.
Experiment [22] concerns the target HLA-B*53:01. Described as above.
In experiment [23] the target is HLA-B*58:01. The description is as above.
The target of experiment [24] is HLA-A*02:01. Kind of experiment: IEDB peptide-MHC binding, purified MHC/competitive/fluorescence; filed as Kd, often an IC50 or EC50 that approximates it; ≥ and ≤ were set here for values at or beyond the usual limits of such assays. The settings on record: source organism: Francisella tularensis subsp. holarctica OSU18.
Experiment [25] addresses HLA-A*02:12. The experiment is described as above. Conditions: source organism: Francisella tularensis subsp. holarctica OSU18.
Experiment [26] has as its target HLA-B*51:01. Put plainly: IEDB peptide-MHC binding, purified MHC/direct/fluorescence; filed as Kd, often an IC50 or EC50 that approximates it; ≥ and ≤ were set here for values at or beyond the usual limits of such assays.
For experiment [27], the target named is HLA-B*15:01. Put plainly: IEDB peptide-MHC binding, purified MHC/competitive/fluorescence; filed as Kd, often an IC50 or EC50 that approximates it; ≥ and ≤ were set here for values at or beyond the usual limits of such assays.
In experiment [28] the target is HLA-B*40:01. The description is as above.
Experiment [29] has as its target HLA-B*07:02. The description is as above.
The target of experiment [30] is HLA-B*35:01. The description is as above. The settings on record: source organism: Bacillus anthracis str. A2012.
Experiment [31] addresses HLA-B*51:01. The description is as above. The settings on record: source organism: Bacillus anthracis str. A2012.
The target of experiment [32] is HLA-A*32:01. Put plainly: IEDB peptide-MHC binding, purified MHC/competitive/radioactivity; filed as Kd, often an IC50 or EC50 that approximates it; ≥ and ≤ were set here for values at or beyond the usual limits of such assays.
Experiment [33] concerns the target HLA-A*01:01. Kind of experiment: IEDB peptide-MHC binding, purified MHC/competitive/fluorescence; ≥ and ≤ were set here for values at or beyond the usual limits of such assays.
Experiment [34] addresses HLA-B*15:01. The description is as above.
The mark [35] stands for this setting: source organism: Dengue virus 4 Philippines/H241/1956.
Setting [36] is: source organism: Vaccinia virus WR.
Setting [37] is: source organism: Zaire ebolavirus.
The mark [38] stands for this setting: source organism: Dengue virus 2 Jamaica/1409/1983.
[39] abbreviates: source organism: Dengue virus 3 Martinique/1243/1999.
The mark [40] stands for this setting: source organism: Escherichia coli O157:H7 str. EDL933.
Where [41] appears, read: source organism: Dengue virus 1 Brazil/97-11/1997.
The mark [42] stands for this setting: source organism: Bacillus anthracis str. A2012.
[43] abbreviates: source organism: Sudan ebolavirus.
Setting [44] is: source organism: Yersinia pestis CO92.

One may read the pKd as the Kd on a negative log10 scale, so that one unit is a factor of ten. As usually defined, the pIC50 is the negative decadic logarithm of the IC50, by convention in mol/L. A higher pIC50 goes with a low IC50.

pIC50, pKd: −log10 of the molar value. Bounds are passed on as bounds.

Turning to MLKLRQARL, the pKd in [1], in experiment [2], in [3], in [4], in experiment [5] and in experiment [6] was at most 4.70 throughout. In addition, the pKd in experiment [7], in experiment [8], in experiment [9], in experiment [10], in [11] and in experiment [12] was at most 4.70 throughout. The sequence further showed a pKd in experiment [13] of at most 4.70.
As to IAVSTANIF, the pKd was 6.82 in [14] (setting [35]) and 6.39 in experiment [15] (setting [35]).
Regarding VPKLLLWFN, the pIC50 in [16] (source organism: Variola virus) was 5.01; in experiment [17] (source organism: Variola virus), at most 3.09.
Turning to LPWTKISET, the pIC50 was at most 3.39 in experiment [18] (setting [36]), 4.18 in [16] (setting [36]), at most 4.09 in experiment [17] (setting [36]) and at most 4.06 in experiment [19] (setting [36]).
For the sequence TVEGIGHHY, in [20] (source organism: Shigella sonnei Ss046), the pKd is 7.44.
SLFLPKLVV: the pIC50 was 6.70 in experiment [18] (setting [37]), 4.34 in [16] (setting [37]) and at most 3.53 in experiment [19] (setting [37]).
For the sequence IAASIILEF, the pKd in experiment [21] is 6.32; in experiment [14] (setting [38]) it was 7.66; in experiment [22] (setting [38]) it was 7.58; in [23] (setting [38]) it was 8.15.
For FEVKKRDGV, the pIC50 in [19] (setting [37]) was at most 3.80.
Turning to SVYSWAIML, the pKd in experiment [24] was 7.76; in experiment [25], 5.64.
In the case of HPGFTILAL, the pKd was at most 4.70 in [26] (source organism: dengue virus type 3) and 9.52 in experiment [22] (setting [39]).
Consider FERGVINVF, for which the pKd was 6.58 in experiment [27] (setting [40]) and 5.49 in [28] (setting [40]).
Take MSSEGAWKQI: the pKd is 6.64 in experiment [15] (setting [41]) and 6.10 in experiment [23] (setting [41]).
In the case of KTRTNDWDF, the pKd in experiment [15] (source organism: Dengue virus 2 Peru/IQT2913/1996) was 8.18.
As to MPLKKQILF, the pKd in experiment [29] (setting [42]) is 6.55; in experiment [30], at least 10.00; in experiment [31], 6.89.
YETLVGLAI showed a pKd in [28] (source organism: Salmonella enterica subsp. enterica serovar Typhi) of 8.40.
Regarding RVWIEDNPW, the figures for the pKd in experiment [32] (setting [39]), in [15] (setting [39]) and in [23] (setting [39]) were 7.14, 7.30 and 8.68, respectively.
On to SPGRKNGSF, for which, in experiment [26] (source organism: Yellow fever virus 1899/81), the pKd is at most 4.70.
For the sequence KMDNGTLEF, the pIC50 was 4.82 in experiment [33] (setting [36]), 5.20 in experiment [18] (setting [36]), 5.97 in experiment [16] (setting [36]) and 4.61 in [34] (setting [36]). Moreover, the pKd in experiment [32] (setting [36]) was 9.03.
As to RLDRPHTPQ, the values for the pIC50 in experiment [18] (setting [43]) and in experiment [17] (setting [43]) were at most 4.05 and 4.54, respectively.
As to SVGHMMVIF, the pIC50 in [18] (setting [37]) was 4.73; in [16] (setting [37]) it was 5.62; in experiment [17] (setting [37]), at most 3.56; in [34] (setting [37]), 4.98.
Turning to KTSIGLICVI, the pKd in experiment [15] (setting [39]) was 6.67.
Regarding GELIFSHNL, the values for the pKd in experiment [27] (setting [44]) and in experiment [28] (setting [44]) were 5.50 and 8.15, respectively.
On to HKDGAFFLY, for which the pIC50 in experiment [33] (setting [43]) is 5.20.
In the case of TLDGQQFYW, the pIC50 is 4.45 in experiment [33] (setting [37]), 5.65 in [18] (setting [37]) and 6.74 in [16] (setting [37]).
As for LWNPYEWYQ, in experiment [20] (setting [42]), the pKd was 6.28.
Regarding YRHILRSQG, the pIC50 in [19] (setting [37]) is at most 3.77.
Consider AAVEDEDFW, for which the pKd in experiment [22] (setting [39]) was 6.48; in experiment [15] (setting [39]), 5.95; in [23] (setting [39]), 6.95.
Regarding ASSGMLWMAE, the pKd in experiment [15] (setting [39]) is at most 4.53; in [23] (setting [39]), 5.64.
For the sequence MNHKNKFMA, the results for the pIC50 in [18] (setting [37]) and in experiment [19] (setting [37]) were at most 3.85 and 4.70, respectively.
Regarding FSTSDGKEY, the pIC50 was 4.84 in experiment [33] (setting [37]) and 4.94 in [34] (setting [37]).
Take LPFERATV: in experiment [29] (source organism: Influenza A virus (A/swine/Italy/2/1979(H1N1))), the pKd is 7.98.
Take WMSSEGAWKQ: the negative-log Kd (pKd) in experiment [23] (setting [41]) was 5.11.

The values above are taken from the Immune Epitope Database (IEDB).
